Measurements: patent publication US10517958B2, “Compositions and methods for the treatment of platinum-drug resistant cancer” (ZYMEWORKS INC., priority 2016, dated 2019)

Tested on: UM-UC13 parental and ex vivo cells
Assay: Internalization assay (confocal microscopy)
Assay type: cell-based, human
Settings: ex vivo and in situ G0-G6 tumor cells
Protocol: UM-UC13 parental and ex vivo cells were seeded to cover slips and grown to 80% confluency. 100 nM rVAR2-V5 was incubated with the cells for 1 hour at 37° C. and 5% CO2. Cells were subsequently washed with PBS prior to fixation with 4% paraformaldehylde for 15 min at room temperature followed by permeabilization with 0.5% trition for 3 mins and blocked with 3% BSA for 30 mins. Cells were then incubated with primary Anti-V5 antibody from ThermoFischer (R960-25) according to manufacturer's instructions followed by 1 hour incubation with anti-mouse AlexaFluor488 secondary antibody from Invitrogen (A-21202). Cover slips were washed with PBS and mounted in mounting media containing DAPI and analyzed by laser-scanning confocal microscopy.

B1: rVAR2: ID1, DBL2X and ID2a domains of the full-length malarial VAR2CSA protein linked to a C-terminal V5 tag (protein)
chain: GHSDSGKYDPCEKKLPPYDDNDQWKCQQNSSDGSGKPENICVPPRRERLCTYNLENLKFDKIRDNNAFLADVLLTARNEGEKIVQNHPDTNSSNVCNALERSFADLADIIRGTDQWKGTNSNLEKNLKQMFAKIRENDKVLQDKYPKDQKYTKLREAWWNANRQKVWEVITCGARSNDLLIKRGWRTSGKSDRKKNFELCRKCGHYEKEVPTKLDYVPQFLRWLTEWIEDFYREKQNLIDDMERHREECTREDHKSKEGTSYCSTCKDKCKKYCECVKKWKTEWENQENKYKDLYEQNKNKTSQKNTSRYDDYVKDFFEKLEANYSSLENYIKGDPYFAEYATKLSFILNPSDANNPSGETANHNDEACNCNESGISSVGQAQTSGPSSNKTCITHSSIKTNKKKECKDVKLGVRENDKDLKICVIEDTSLSGVDNCCCQDLLGILQENCSDNKRGSSSNDSCDNKNQDECQKKLEKVFASLTNGYKCDKCKSGTSRSKKKWIWKKSSGNEEGLQEEYANTIGLPPRTQSLYLGNLPKLENVCEDVKDINFDTKEKFLAGCLIVSFHEGKNLKKRYPQNKNSGNKENLCKALEYSFADYGDLIKGTSIWDNEYTKDLELNLQNNFGKLFGKYIKKNNTAEQDTSYSSLDELRESWWNTNKKYIWTAMKHGAEMNITTCNADGSVTGSGSSCDDIPTIDLIPQYLRFLQEWVENFCEQRQAKVKDVITNCKSCKESGNKCKTECKTKCKDECEKYKKFIEACGTAGGGIGTAGSPWSKRWDQIYKRYSKHIEDAKRNRKAGTKNCGTSSTTNAAASTDENKCVQSDIDSFFKHLIDIGLTTPSSYLSNVLDDNICGADKAPWTTYTTYTTTEKCNKERDKSKSQSSDTLVVVNVPSPLGNTPYRYKYACQCKIPTNEETCDDRKEYMNQWSCGSARTMKRGYKNDNYELCKYNGVDVKPTTVRSNSSKLDSGRGELEGKPIPNPLLGLDSTRTGHHHHHH
B1 was tested, and the “internalization of rVAR2 protein” value was “retained internalization capacity”.
